Here are results for six substances from article PMC12170185.

Some targets named below: UPF2 MIF4G-D1 (UniProt Q9HAU5); UPF2L (UniProt Q9HAU5); UPF2 MIF4G-D3 (UniProt Q9HAU5); UPF2 MIF4G-D1-2 (UniProt Q9HAU5); UPF2 MIF4G-D2 (UniProt Q9HAU5); UPF2 MIF4G-D2-3 (UniProt Q9HAU5).
Assay in all cases: fluorescence anisotropy
Conditions in all cases: FA: 25 mM HEPES pH 7.45, 150 mM NaCl, 5% glycerol, 10 nM probe, temperature not stated, EMSA: 250 nM probe in 25 mM HEPES pH 7.45, 100 mM NaCl

Chain of UPF2L (Q9HAU5 121-1227): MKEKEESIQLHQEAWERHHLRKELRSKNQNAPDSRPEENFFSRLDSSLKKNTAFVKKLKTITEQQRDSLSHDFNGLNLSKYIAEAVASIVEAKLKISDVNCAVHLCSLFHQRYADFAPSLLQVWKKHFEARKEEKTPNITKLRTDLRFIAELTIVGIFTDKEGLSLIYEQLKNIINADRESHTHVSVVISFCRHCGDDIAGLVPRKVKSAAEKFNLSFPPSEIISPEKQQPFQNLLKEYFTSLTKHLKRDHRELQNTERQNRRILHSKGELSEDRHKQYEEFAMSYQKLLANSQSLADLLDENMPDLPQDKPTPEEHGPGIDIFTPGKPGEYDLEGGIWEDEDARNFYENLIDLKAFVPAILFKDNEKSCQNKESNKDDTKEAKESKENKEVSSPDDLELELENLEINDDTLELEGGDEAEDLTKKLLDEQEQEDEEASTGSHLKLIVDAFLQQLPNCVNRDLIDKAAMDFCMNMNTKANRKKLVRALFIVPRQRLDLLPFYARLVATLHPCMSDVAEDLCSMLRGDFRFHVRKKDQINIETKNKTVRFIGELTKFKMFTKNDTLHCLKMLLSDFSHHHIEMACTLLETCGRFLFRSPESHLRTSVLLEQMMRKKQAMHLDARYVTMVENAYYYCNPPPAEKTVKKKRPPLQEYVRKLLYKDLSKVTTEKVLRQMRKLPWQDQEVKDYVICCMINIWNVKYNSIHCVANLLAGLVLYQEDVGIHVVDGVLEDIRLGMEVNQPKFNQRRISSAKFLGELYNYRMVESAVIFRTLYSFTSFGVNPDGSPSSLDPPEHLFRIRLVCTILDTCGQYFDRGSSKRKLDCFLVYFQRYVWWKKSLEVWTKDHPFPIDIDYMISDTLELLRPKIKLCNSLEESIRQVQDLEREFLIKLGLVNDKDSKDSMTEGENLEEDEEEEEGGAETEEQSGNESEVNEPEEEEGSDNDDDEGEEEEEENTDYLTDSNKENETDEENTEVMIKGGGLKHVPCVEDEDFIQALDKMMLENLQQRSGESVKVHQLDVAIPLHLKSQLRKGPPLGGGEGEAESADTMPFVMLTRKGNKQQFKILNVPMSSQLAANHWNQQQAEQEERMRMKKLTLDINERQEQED
Chain of UPF2 MIF4G-D3 (Q9HAU5 761-1054): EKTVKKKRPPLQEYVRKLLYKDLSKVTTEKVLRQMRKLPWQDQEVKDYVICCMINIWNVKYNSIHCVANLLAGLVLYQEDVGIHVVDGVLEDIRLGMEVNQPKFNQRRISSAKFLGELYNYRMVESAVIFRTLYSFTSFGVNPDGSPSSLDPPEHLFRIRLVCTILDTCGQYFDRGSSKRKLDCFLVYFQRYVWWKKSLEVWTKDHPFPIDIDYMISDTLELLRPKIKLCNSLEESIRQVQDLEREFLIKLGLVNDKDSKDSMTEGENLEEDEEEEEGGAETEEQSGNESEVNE
Chain of UPF2 MIF4G-D2-3 (Q9HAU5 455-1054): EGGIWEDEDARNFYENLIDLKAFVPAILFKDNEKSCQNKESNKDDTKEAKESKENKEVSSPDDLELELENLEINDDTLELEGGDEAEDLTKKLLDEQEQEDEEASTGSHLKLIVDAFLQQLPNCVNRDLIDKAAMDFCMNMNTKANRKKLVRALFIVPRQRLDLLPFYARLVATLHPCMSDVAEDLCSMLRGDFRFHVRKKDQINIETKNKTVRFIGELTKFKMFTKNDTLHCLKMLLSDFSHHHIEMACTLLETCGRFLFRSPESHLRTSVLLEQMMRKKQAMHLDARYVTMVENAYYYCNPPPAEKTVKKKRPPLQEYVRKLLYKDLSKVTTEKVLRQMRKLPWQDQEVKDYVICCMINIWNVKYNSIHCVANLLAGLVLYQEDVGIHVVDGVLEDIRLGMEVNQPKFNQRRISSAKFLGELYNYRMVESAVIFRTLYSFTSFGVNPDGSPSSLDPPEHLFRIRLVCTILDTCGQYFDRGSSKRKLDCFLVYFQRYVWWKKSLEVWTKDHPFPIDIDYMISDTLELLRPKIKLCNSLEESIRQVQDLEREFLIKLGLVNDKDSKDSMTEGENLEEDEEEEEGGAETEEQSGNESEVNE
Chain of UPF2 MIF4G-D2 (Q9HAU5 455-757): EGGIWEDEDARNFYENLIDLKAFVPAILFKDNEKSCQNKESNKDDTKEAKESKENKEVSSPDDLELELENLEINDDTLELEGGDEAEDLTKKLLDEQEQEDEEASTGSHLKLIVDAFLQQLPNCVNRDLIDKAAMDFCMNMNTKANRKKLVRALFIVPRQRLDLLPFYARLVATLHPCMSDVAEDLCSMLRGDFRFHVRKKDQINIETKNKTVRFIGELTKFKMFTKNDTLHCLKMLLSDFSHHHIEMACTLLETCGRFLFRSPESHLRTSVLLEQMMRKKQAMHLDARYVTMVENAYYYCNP
Chain of UPF2 MIF4G-D1 (Q9HAU5 120-486): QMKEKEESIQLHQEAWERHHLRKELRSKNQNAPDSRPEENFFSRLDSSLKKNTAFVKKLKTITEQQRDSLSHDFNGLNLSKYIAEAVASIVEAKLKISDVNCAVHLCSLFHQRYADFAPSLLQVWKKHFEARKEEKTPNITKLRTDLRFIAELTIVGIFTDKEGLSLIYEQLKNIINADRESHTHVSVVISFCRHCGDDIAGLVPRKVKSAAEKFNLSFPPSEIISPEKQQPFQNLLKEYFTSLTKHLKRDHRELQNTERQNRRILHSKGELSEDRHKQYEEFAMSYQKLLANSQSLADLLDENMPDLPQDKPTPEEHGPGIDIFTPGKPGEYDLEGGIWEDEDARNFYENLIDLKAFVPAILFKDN
Chain of UPF2 MIF4G-D1-2 (Q9HAU5 120-757): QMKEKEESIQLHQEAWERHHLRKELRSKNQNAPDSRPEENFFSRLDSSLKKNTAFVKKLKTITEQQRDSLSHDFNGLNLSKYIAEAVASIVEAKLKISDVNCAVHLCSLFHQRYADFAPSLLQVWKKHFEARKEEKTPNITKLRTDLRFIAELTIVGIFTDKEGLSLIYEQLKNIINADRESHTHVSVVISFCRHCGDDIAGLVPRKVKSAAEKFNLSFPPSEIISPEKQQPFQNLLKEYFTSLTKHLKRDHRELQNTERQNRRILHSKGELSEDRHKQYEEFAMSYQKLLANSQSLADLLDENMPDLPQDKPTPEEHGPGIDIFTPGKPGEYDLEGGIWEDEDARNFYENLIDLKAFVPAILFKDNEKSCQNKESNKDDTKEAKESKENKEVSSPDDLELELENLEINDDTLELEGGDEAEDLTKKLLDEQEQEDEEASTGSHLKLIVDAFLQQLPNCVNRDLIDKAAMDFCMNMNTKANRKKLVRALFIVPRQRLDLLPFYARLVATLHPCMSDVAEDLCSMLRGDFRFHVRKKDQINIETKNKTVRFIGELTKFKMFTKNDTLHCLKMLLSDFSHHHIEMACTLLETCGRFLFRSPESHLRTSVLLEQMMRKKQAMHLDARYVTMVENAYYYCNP

As usually defined, the Kd is the free concentration of one partner at which half of the binding sites on the other are occupied at equilibrium, for simple one-to-one binding. Low readings indicate a tighter complex, high ones a looser complex. Take 24 nt ss-RNA: the Kd turned out to be 1400 nM with UPF2 MIF4G-D1; 135 nM with UPF2L; 694 nM with UPF2 MIF4G-D3; 784 nM in the data set with UPF2 MIF4G-D1-2; 3.5 µM with UPF2 MIF4G-D2; 530 nM in the data set with UPF2 MIF4G-D2-3.

24 nt ds-DNA returned a Kd in the data set with UPF2L of 334 nM.

Turning to 13 nt PUR ss-RNA, the dissociation constant (Kd) came out at 683 nM with UPF2L and 1280 nM with UPF2 MIF4G-D3.

The substance 24 nt ds-RNA returned a Kd in the data set with UPF2L of 454 nM. This lies in the sub-micromolar range.

Consider 13 nt PYR ss-RNA, for which the Kd with UPF2L amounted to 650 nM; with UPF2 MIF4G-D3, 529 nM.

In the data set with UPF2L, 24 nt ss-DNA registered a Kd of 431 nM.
